Assay results taken from the Human Domainome abundance scans (Beltran et al. 2025).
± gives the uncertainty stated by the source.

B1: V(D)J recombination-activating protein 2, residues 415 to 491; numbered along this chain, P55895 (parent)
chain: YWITCCPTCDVDINTWVPFYSTELNKPAMIYCSHGDGHWVHAQCMDLAERTLIHLSAGSNKYYCNEHVEIARALHTP

Variants of: B1
Experiment: abundance fitness (aPCA) (normalised: wild type 0, dead -1); higher = more abundant; growth selection in yeast, the domain comes from the species named
Conditions: Homo sapiens

Variant	abundance fitness
A42C	-0.118 ± 0.077
D46V	0.046 ± 0.056
D46R	0.041 ± 0.031
D46G	-0.03 ± 0.055
D46K	0.122 ± 0.074
D46E	-0.05 ± 0.075
D46T	0.088 ± 0.061
D46F	-0.221 ± 0.11
D46H	-0.071 ± 0.11
D46P	-0.268 ± 0.087
D46L	0.031 ± 0.045
D46M	0.071 ± 0.07
D46W	-0.193 ± 0.07
D46Q	0.085 ± 0.045
D46N	0.029 ± 0.11
D46S	0.102 ± 0.055
D46C	0.036 ± 0.083
D46Y	-0.113 ± 0.12
L55A	-0.108 ± 0.07
L55T	-0.174 ± 0.069
L55P	-0.218 ± 0.078
L55Q	0.027 ± 0.074
L55F	-0.06 ± 0.12
L55M	-0.026 ± 0.066

Variant	abundance fitness
L55V	-0.082 ± 0.071
L55H	0.085 ± 0.18
L55R	-0.111 ± 0.036
L55W	-0.086 ± 0.053
L55D	-0.152 ± 0.12
L55G	-0.18 ± 0.047
L55K	-0.019 ± 0.087
L55S	-0.011 ± 0.049
L55C	0.04 ± 0.099
L55E	-0.051 ± 0.093
L55Y	-0.027 ± 0.083
L55N	-0.062 ± 0.15
E49I	-0.468 ± 0.15
E49P	0.023 ± 0.075
E49S	-0.243 ± 0.069
E49K	-0.279 ± 0.1
E49T	-0.345 ± 0.075
E49C	-0.201 ± 0.067
E49A	-0.056 ± 0.046
E49Q	-0.019 ± 0.093
E49L	-0.124 ± 0.044
E49R	-0.368 ± 0.055
E49F	-0.149 ± 0.093
E49N	-0.183 ± 0.14

Variant	abundance fitness
E49V	-0.264 ± 0.049
E49Y	-0.127 ± 0.053
E49M	-0.168 ± 0.067
E49D	-0.038 ± 0.083
E49G	-0.295 ± 0.044
E49W	-0.292 ± 0.071
H54L	0.016 ± 0.06
H54E	0.02 ± 0.081
H54Q	-0.277 ± 0.15
H54D	0.042 ± 0.18
H54P	-0.007 ± 0.04
H54R	-0.056 ± 0.074
H54W	-0.064 ± 0.087
H54N	-0.061 ± 0.1
H54S	-0.002 ± 0.091
H54F	-0.602 ± 0.34
H54K	0.112 ± 0.13
H54A	0.004 ± 0.066
H54C	0.001 ± 0.15
H54G	0.035 ± 0.054
H54V	0.008 ± 0.073
H54M	-0.087 ± 0.12
H54T	-0.12 ± 0.083
H54Y	-0.183 ± 0.24

Variant	abundance fitness
A57D	0.04 ± 0.18
A57V	-0.14 ± 0.077
A57S	0.048 ± 0.055
A57C	-0.124 ± 0.11
A57W	-0.276 ± 0.11
A57H	0.091 ± 0.17
A57I	0.216 ± 0.29
A57Y	-0.108 ± 0.19
A57E	-0.03 ± 0.075
A57P	-0.029 ± 0.095
A57N	0.057 ± 0.11
A57K	-0.111 ± 0.12
A57T	-0.121 ± 0.12
A57G	-0.068 ± 0.076
A57M	-0.156 ± 0.12
L52E	-0.258 ± 0.095
L52I	-0.186 ± 0.14
L52P	-0.423 ± 0.083
L52N	-0.304 ± 0.28
L52D	-0.31 ± 0.18
L52F	-0.211 ± 0.11
L52R	-0.358 ± 0.073
L52A	-0.144 ± 0.082
L52T	-0.161 ± 0.086

Variant	abundance fitness
L52S	-0.262 ± 0.07
L52W	-0.006 ± 0.092
L52V	-0.033 ± 0.074
L52C	-0.145 ± 0.089
L52H	-0.597 ± 0.42
L52Q	-0.006 ± 0.084
L52Y	-0.318 ± 0.19
Q43S	-0.174 ± 0.21
Q43G	-0.203 ± 0.14
Q43V	-0.116 ± 0.12
Q43M	-0.048 ± 0.19
Q43T	0.107 ± 0.36
Q43A	-0.397 ± 0.5
Q43P	-0.771 ± 0.48
Q43E	-0.344 ± 0.25
Q43R	0.129 ± 0.17
Q43L	-0.196 ± 0.12
R50D	-0.027 ± 0.096
R50Y	-0.122 ± 0.099
R50V	0.069 ± 0.051
R50T	0.049 ± 0.06
R50E	0.039 ± 0.076
R50S	0.092 ± 0.06
R50K	0.015 ± 0.093

Variant	abundance fitness
R50P	0.1 ± 0.068
R50A	0.094 ± 0.066
R50M	0.015 ± 0.089
R50G	0.036 ± 0.051
R50W	-0.195 ± 0.066
R50C	0.106 ± 0.11
R50N	-0.215 ± 0.14
R50F	-0.04 ± 0.081
R50Q	-0.032 ± 0.1
R50I	0.067 ± 0.11
R50L	0.013 ± 0.051
R50H	0.037 ± 0.14
S59Y	-0.031 ± 0.12
S59R	-0.115 ± 0.059
S59A	0.078 ± 0.073
S59G	0.019 ± 0.044
S59H	-0.043 ± 0.21
S59E	0.002 ± 0.12
S59W	-0.225 ± 0.071
S59P	0.062 ± 0.091
S59F	-0.088 ± 0.097
S59T	0.02 ± 0.093
S59C	-0.005 ± 0.1
S59Q	-0.224 ± 0.077

Variant	abundance fitness
S59I	0.103 ± 0.16
S59N	-0.25 ± 0.21
S59K	0.053 ± 0.11
S59L	-0.087 ± 0.085
S59M	-0.042 ± 0.09
S59V	-0.068 ± 0.068
I53F	-0.013 ± 0.19
I53P	-0.163 ± 0.2
I53D	-0.184 ± 0.25
I53L	-0.02 ± 0.076
I53H	-0.069 ± 0.18
I53R	-0.011 ± 0.071
I53W	-0.124 ± 0.12
I53Y	-0.133 ± 0.1
I53V	-0.048 ± 0.096
I53G	0.007 ± 0.064
I53T	0.004 ± 0.11
I53A	0.154 ± 0.11
I53N	0.244 ± 0.49
I53C	-0.056 ± 0.12
I53E	-0.194 ± 0.13
I53M	0.041 ± 0.1
I53S	0.049 ± 0.086
